{"source": "patent US20190077860A1", "about": "(EISAI R AND D MANAGEMENT, published 2019)", "binders": {"B1": {"name": "antibody A (antibody, mouse IgG1, kappa, V domains shown)", "VH": "QIQLVQSGPELKKPGETVKISCKASGYTFTDYSMHWVKQAPGKGLKWMGWINTETGEPTYADDFKGRFAFSLETSASTAYLQINNLKNEDTATYFCARIPLYYYGSRYWYFDVWGAGTTVTVSS", "VL": "DIQMTQSPASLSVSVGETVTITCRASENIYRNLAWYQQKQGKSPQLLVYAATNLADGVPSRFSGSGSGTQYSLKINSLQSEDFGSYYCQHFWGTPWTFGGGTKLEIKR", "notes": "mouse IgG1 heavy chain, kappa light chain; purified from hybridoma supernatant; also called anti-EphA4 monoclonal antibody; antibody A-IgG"}}, "key": {"[1]": {"molecular_target": "T1, mouse EphA4 extracellular region-SEAP-His protein (mouse)", "T1 sequence (chain, as listed by the source limits assumed)": "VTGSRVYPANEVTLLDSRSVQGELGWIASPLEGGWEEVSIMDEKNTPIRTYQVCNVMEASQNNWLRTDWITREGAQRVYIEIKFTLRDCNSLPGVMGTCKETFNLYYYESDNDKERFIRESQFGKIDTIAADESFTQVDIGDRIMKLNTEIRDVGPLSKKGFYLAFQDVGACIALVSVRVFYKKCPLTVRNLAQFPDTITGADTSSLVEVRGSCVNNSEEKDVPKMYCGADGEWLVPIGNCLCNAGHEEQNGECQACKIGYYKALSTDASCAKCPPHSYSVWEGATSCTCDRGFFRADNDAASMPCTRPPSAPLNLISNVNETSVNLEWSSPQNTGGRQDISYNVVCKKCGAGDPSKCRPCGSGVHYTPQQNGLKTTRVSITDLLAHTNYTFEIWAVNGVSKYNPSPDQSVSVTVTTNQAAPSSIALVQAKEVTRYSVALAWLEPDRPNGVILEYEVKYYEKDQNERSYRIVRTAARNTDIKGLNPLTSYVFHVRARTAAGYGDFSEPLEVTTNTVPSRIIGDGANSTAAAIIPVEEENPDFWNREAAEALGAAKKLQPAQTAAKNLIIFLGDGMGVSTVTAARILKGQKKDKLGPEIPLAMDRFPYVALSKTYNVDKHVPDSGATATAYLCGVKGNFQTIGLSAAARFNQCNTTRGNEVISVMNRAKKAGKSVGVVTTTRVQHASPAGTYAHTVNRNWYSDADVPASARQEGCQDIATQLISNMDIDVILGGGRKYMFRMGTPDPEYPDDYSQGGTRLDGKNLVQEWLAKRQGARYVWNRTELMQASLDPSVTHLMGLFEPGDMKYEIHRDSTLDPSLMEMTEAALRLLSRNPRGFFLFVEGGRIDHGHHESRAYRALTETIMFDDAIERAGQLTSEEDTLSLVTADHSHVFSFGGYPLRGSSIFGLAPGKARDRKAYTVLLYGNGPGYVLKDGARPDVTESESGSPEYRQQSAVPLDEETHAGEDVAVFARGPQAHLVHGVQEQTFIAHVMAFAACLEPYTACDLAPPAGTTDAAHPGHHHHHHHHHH", "test": "competition ELISA, competitor biotinylated mouse Ephrin B2-Fc; first value printed", "protocol": "(§1) Antibody A-Fab and antibody A-F(ab′)₂ obtained in Example 5 were evaluated for their inhibitory activity against the binding between EphA4 and its ligand according to the following steps. Each well of a 96-well plate (Nunc) was coated with an anti-alkaline phosphatase antibody (Thermo Fisher Scientific). After incubation overnight at 4° C., each well was blocked with 1% BlockAce (DS Pharma Biomedical) at room temperature for 1 hour. After washing with 0.05% Tween 20/PBS (Thermo Fisher Scientific) three times, the mouse EphA4 extracellular region-SEAP-His protein obtained by the method of Example 1 was added (final concentration: 10 nM) to each well and incubated at room temperature for 1 hour. After washing three times, a ligand and serially diluted antibody A (0, 0.003, 0.01, 0.03, 0.1, 0.3, 1, 3, 10, 30, 100, 300, 1000, and 3000 nM), antibody A-Fab (0, 0.003, 0.01, 0.03, 0.1, 0.3, 1, 3, 10, 30, 100, 300, 1000, and 3000 nM), antibody A-F(ab′)₂ (0, 0.003, 0.01, 0.03, 0.1, 0.3, 1, 3, 10, 30, 100, 300, 1000, and 3000 nM), or the EphA4 inhibitor KYL peptide ([…], 0, 0.0003, 0.001, 0.003, 0.01, 0.03, 0.1, 0.3, 1, 3, 10, 30, 100, 300, 1000, and 3000 μM, its synthesis was outsourced to Toray Research Center) were added to each well. […] The absorbance at 450 nm was read using a microplate reader (Molecular Devices or PerkinElmer). […]"}, "[2]": {"molecular_target": "T1, mouse EphA4 extracellular …", "test": "competition ELISA, competitor biotinylated mouse Ephrin B2-Fc; alternative value in brackets", "protocol": "as §1"}, "[3]": {"molecular_target": "T2, human EphA4 extracellular region-SEAP-His protein (human, UniProt P54764 20-547)", "T2 construct": "also called hEphA4-SEAP-His", "T2 sequence (P54764 20-547)": "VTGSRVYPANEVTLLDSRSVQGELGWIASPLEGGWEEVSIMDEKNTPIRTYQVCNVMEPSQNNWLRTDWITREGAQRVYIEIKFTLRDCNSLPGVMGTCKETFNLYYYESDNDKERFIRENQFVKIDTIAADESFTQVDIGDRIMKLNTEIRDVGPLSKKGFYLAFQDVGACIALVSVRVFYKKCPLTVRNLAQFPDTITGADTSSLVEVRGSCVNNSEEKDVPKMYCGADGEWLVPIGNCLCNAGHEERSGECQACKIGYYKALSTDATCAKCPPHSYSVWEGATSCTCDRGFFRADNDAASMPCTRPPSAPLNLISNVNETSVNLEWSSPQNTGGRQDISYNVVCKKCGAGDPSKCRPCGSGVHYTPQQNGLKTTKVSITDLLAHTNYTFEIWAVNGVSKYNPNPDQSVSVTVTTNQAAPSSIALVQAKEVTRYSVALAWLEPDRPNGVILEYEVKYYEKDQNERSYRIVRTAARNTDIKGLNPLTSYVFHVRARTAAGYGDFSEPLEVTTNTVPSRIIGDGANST", "test": "SPR (Biacore T200), human EphA4 extracellular region-SEAP-His captured on an anti-His antibody CM5 chip, antibody as analyte at 0.6-50 nM, 1:1 fit", "protocol": "Next, the binding affinity of antibody A-Fab and antibody A-F(ab′)₂ for mouse and human EphA4 was determined by surface plasmon resonance (SPR) using Biacore T200 (GE Healthcare). Antibody A obtained in Example 1 was used as a control for the comparison of each fragment. First, an anti-His tag antibody was immobilized on sensor chip CM5. The immobilization of the anti-His tag antibody on sensor chip CM5 was performed by the amine coupling method using N-hydroxysuccinimide (NHS) and N-ethyl-N′-(3-dimethylaminopropyl)carbodiimide hydrochloride (EDC). Ethanolamine was used in blocking (the sensor chip and the reagents for immobilization were all manufactured by GE Healthcare). The antibody was diluted with a buffer solution for immobilization (10 mM sodium acetate, pH 4.5) into 3 μg/mL and immobilized on the sensor chip according to the protocol attached to Biacore T200.\nMouse or human EphA4 extracellular region-SEAP-His protein was diluted with a running buffer solution HBS-EP (GE Healthcare, BR-1001-88), injected onto a flow cell for 120 seconds, and captured (amount of the protein captured: approximately 10 to 20 RU). Subsequently, antibody A (50, 16.7, 5.6, 1.9, 0.6, and 0 nM), antibody A-Fab (500, 166.7, 55.6, 18.5, 6.2, and 0 nM), or antibody A-F(ab′)₂ (50, 16.7, 5.6, 1.9, 0.6, and 0 nM) serially diluted using HBS-EP was added to the sensor chip for 120 seconds. Binding reaction curves were sequentially observed at the time of the addition (association phase, for 120 sec) and after the completion of the addition (dissociation phase, for 900 sec). After the completion of each observation, the sensor chip was regenerated by the addition of 3 M MgCl₂ (Wako Pure Chemical Industries) (for 30 sec). The obtained binding reaction curves were subjected to fitting analysis with 1:1 binding models using software BIA evaluation attached to the system to calculate the binding affinity (KD=kd/ka) for mouse and human EphA4."}, "[4]": {"molecular_target": "T3, rat EphA4 extracellular region-Fc-His protein (rat; human, UniProt D3ZZK3 20-547)", "T3 construct": "range 20-547; used as culture supernatant", "test": "ELISA, EphA4 extracellular region-Fc-His (1 nM) captured on the plate, antibody A titrated, HRP anti-mouse IgG detection, OD 450 nm", "protocol": "(§2) Each well of a 96-well plate (Nunc) was coated with a […] (Jackson ImmunoResearch Laboratories). After incubation overnight at 4° C., each well was blocked with 1% BlockAce (Sumitomo Dainippon Pharma) at room temperature for 1 hour. After washing with 0.05% Tween 20/PBS (Nacalai Tesque) three times, the mouse, rat, monkey, or human EphA4 extracellular region-Fc-His protein was disseminated (final concentration: 1 nM) to each well and incubated at room temperature for 1 hour. After washing three times, a human IgG solution (100 μg/mL, Mitsubishi Pharma) and antibody A (0, 0.00128, 0.0064, 0.032, 0.16, 0.8, 4, and 20 μg/mL) were added to each well and incubated at room temperature for 1 hour. A horseradish peroxidase-labeled donkey anti-mouse IgG antibody (Jackson ImmunoResearch Laboratories) was added thereto and incubated at room temperature for 1 hour. After washing three times, a TMBZ (3,3′,5,5′-tetramethylbenzidine, Sigma-Aldrich) solution was added to each well. After confirmation of moderate color development, an equal amount of a reaction stopping solution (1N H₂SO₄, Wako Pure Chemical Industries) was added to each well. The absorbance at 450 nm was read using a microplate reader (PerkinElmer)."}, "[5]": {"molecular_target": "T4, human EphA4 extracellular region-Fc-His protein (human, UniProt P54764 20-547)", "T4 construct": "used as culture supernatant", "T4 sequence (P54764 20-547)": "as above", "test": "ELISA, EphA4 extracellular region-Fc-His (1 nM) captured on the plate, antibody A titrated, HRP anti-mouse IgG detection, OD 450 nm", "protocol": "as §2"}}, "data": [{"binder": "B1", "values": [{"measurement": "IC50", "setting": "[1]", "result": 2.6, "unit": "nM"}, {"measurement": "IC50", "setting": "[2]", "result": 3.6, "unit": "nM"}, {"measurement": "Kd", "setting": "[3]", "result": 0.144, "unit": "nM"}, {"measurement": "koff", "setting": "[3]", "result": 0.000389, "unit": "s⁻¹"}, {"measurement": "kon", "setting": "[3]", "result": "2.7e+06", "unit": "M⁻¹ s⁻¹"}, {"measurement": "EC50 (read off the curve)", "setting": "[4]", "result": "~0.1", "unit": "nM"}, {"measurement": "EC50 (read off the curve)", "setting": "[5]", "result": "~0.1", "unit": "nM"}]}]}
